According to article PMC12838881, “Engineering Single-Chain Antibody Fragment (scFv) Variants Targeting A Disintegrin and Metalloproteinase-17 (ADAM-17)” (Biomolecules, 2025):

Biological target: T1, a disintegrin and metalloproteinase-17 catalytic domain (6xHis-ADAM-17cd) (UniProt P78536)
T1 construct: ADAM-17 (TACE), catalytic domain; also called TACE; tumor necrosis factor-α-converting enzyme; source: bought: Enzo Life Sciences
Assay: flow cytometry on cells; scFv variants or TIMP-3 displayed on yeast; soluble 6xHis-ADAM-17cd or MMP-9cd at 100 nM (legend and results; the methods say 150 nM); PBSA pH 7.4; binding read with anti-6xHis Alexa Fluor 647, expression with anti-c-Myc and Alexa Fluor 488; median binding normalised to expression
Conditions: one partner purified

T1 sequence (P78536 215-474): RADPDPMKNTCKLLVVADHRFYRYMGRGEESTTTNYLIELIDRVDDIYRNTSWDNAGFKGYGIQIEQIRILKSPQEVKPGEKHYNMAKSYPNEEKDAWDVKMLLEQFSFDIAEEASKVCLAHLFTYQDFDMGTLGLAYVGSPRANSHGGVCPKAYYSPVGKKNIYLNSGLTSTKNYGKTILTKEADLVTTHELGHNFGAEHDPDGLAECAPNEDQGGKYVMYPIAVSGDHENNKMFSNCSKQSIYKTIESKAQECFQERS

| Binder | binding per expression signal, fold of TIMP-3 [fold] | binding result |
| --- | --- | --- |
| SynAb-A7 scFv displayed on yeast (scFv, V domains shown, light chain variable domain as printed; glycine-rich peptide linker between VL and VH; heavy chain variable domain as printed; CDR-H3 KKEYYSR; VL-VH orientation; source: yeast surface display, S. cerevisiae RJY100, pCTCON2 vector; not shown: Aga2p, N-terminal, kept) VH: EVQLVQSGAEVKKPGESLKISCKGSGYSFTSYWIGWVRQMPGKGLEWMGIIYPGDSDTRYSPSFQGQVTISADKSISTAYLQWSSLKASDTAVYYCARKKEYYSRFDYWGQGTLVTVSS VL: not shown | ≤ 3 |  |
| SynAb-A9 scFv displayed on yeast (scFv, V domains shown, light chain variable domain as printed; glycine-rich peptide linker between VL and VH; heavy chain variable domain as printed; CDR-H3 PGGYYDMEYLY; VL-VH orientation; source: yeast surface display, S. cerevisiae RJY100, pCTCON2 vector; not shown: Aga2p, N-terminal, kept) VH: QLQLQESGPGLVKPSETLSLTCTVSGGSISSSSYYWGWIRQPPGKGLEWIGSIYYSGSTYYNPSLKSRVTISVDTSKNQFSLKLSSVTAADTAVYYCARPGGYYDMEYLYFDYWGQGTLVTVSS VL: not shown |  | binds |
| SynAb-A6 scFv displayed on yeast (scFv, V domains shown, light chain variable domain as printed; glycine-rich peptide linker between VL and VH; heavy chain variable domain as printed; CDR-H3 TDLHVHVYY; VL-VH orientation; source: yeast surface display, S. cerevisiae RJY100, pCTCON2 vector; not shown: Aga2p, N-terminal, kept) VH: EVQLVQSGAEVKKPGESLKISCKGSGYSFTSYWIGWVRQMPGKGLEWMGIIYPGDSDTRYSPSFQGQVTISADKSISTAYLQWSSLKASDTAVYYCARTDLHVHVYYFDYWGQGTLVTVSS VL: not shown |  | binds |
